According to the supplement of paper PMC7877785:
± gives the uncertainty stated by the source.

Experiment: self-splicing fitness, log relative to wild type (ln ratio); higher = more splicing; Tetrahymena group I intron in knt gene, E. coli kanamycin selection, DiMSum; sequences stand for … in CUCUCU…GGAGGGAAAAGUUAUCAGGCAUGCACCUGGUAGCUAGUCUUUAAACCAAUAGAUUGCAUCGGUUUAAAAGGCAAGACCGUCAAAUUGCGGGAAAGGGGUCAACAGCCGUUCAGUACCAAGUCUCAGGGGAAACUUUGAGAUGGCCUUGCAAAGGGUAUGGUAAUAAGCUGACGGACAUGGUCCUAACCACGCAGCCAAGUCCUAAGUCAACAGAUCUUCUGUUGAUAUGGAUGCAGUUCACAGACUAAAUGUCGGUCGGGGAAGAUGUAUUCUUCUCAUAAGAUAUAGUCGGACCUCUCCUUAAUGGGAGCUAGCGGAUGAAGUGAUGCAACACUGGAGCCGCUGGGAACUAAUUUGUAUGCGAAAGUAUAUUGAUUAGUUUUGGAGUACUCGUGGUCG
Outline: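 Six replicate transformations of E. coli BL21(DE3) with a pET-22b(+) library were grown overnight at 37°C or 30°C. The library randomised all eight P1ex-region intron nucleotides, the intron lying in the knt kanamycin-resistance gene, and plates were LB agar with or without 25 μg/mL kanamycin plus 100 μg/mL carbenicillin, 50 μM IPTG and 0.2% rhamnose. Pooled colonies were amplicon-sequenced on an Illumina HiSeq 2500, and fitness is the DiMSum error-weighted combination of wild-type-normalised replicate fold changes, kanamycin versus none.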

Row | Sequence | self-splicing fitness (ln) (30 °C) | self-splicing fitness (ln) (37 °C)
1 | UCUGAGCAAUAUUACGCAAU | -2.13 ± 0.16 | -2.97 ± 0.21
2 | UCUGAGCAAUAUUACGCAUA | -2.73 ± 0.17 | -1.19 ± 0.15
3 | UCUGAGCAAUAUUACGCGCA | -2.16 ± 0.3 | –
4 | UCUGAGCAAUAUUACGCUGA | -1.89 ± 0.17 | -0.151 ± 0.15
5 | UCUGAGCAAUAUUACGGAUU | -3.51 ± 0.26 | -1.72 ± 0.23
6 | UCUGAGCAAUAUUACGGCCG | -2.7 ± 0.37 | –
7 | UCUGAGCAAUAUUACGGCGU | -1.82 ± 0.1 | -0.983 ± 0.14
8 | UCUGAGCAAUAUUACGGGAU | -2.35 ± 0.18 | -2.54 ± 0.24
9 | UCUGAGCAAUAUUACGGGGU | -4.62 ± 0.32 | -2.28 ± 0.25
10 | UCUGAGCAAUAUUACGGGUA | – | -2.42 ± 0.34
11 | UCUGAGCAAUAUUACGGUCC | -2.51 ± 0.25 | –
12 | UCUGAGCAAUAUUACGGUGU | -2.79 ± 0.19 | -1.84 ± 0.28
13 | UCUGAGCAAUAUUACGGUUC | – | -2.51 ± 0.4
14 | UCUGAGCAAUAUUACGGUUU | -3.14 ± 0.23 | -1.4 ± 0.24
15 | UCUGAGCAAUAUUACGUAUA | -2.36 ± 0.17 | -2.39 ± 0.18
16 | UCUGAGCAAUAUUACGUAUG | -3.07 ± 0.18 | -2.07 ± 0.17
17 | UCUGAGCAAUAUUACGUGUA | -2.67 ± 0.18 | -0.868 ± 0.13
18 | UCUGAGCAAUAUUACGUUGA | -1.89 ± 0.1 | -0.656 ± 0.085
19 | UCUUAGCAAUAUUACGAAGG | -2 ± 0.39 | 1.19 ± 0.23
20 | UCUUAGCAAUAUUACGAAGU | -1.65 ± 0.15 | -1.42 ± 0.27
21 | UCUUAGCAAUAUUACGAGGA | -2.34 ± 0.19 | -1.58 ± 0.19
22 | UCUUAGCAAUAUUACGAUGG | -0.765 ± 0.15 | 0.551 ± 0.15
23 | UCUUAGCAAUAUUACGAUGU | -1.95 ± 0.11 | -0.623 ± 0.13
24 | UCUUAGCAAUAUUACGCCCG | -1.07 ± 0.32 | -1.34 ± 0.34
25 | UCUUAGCAAUAUUACGCCGA | -2.03 ± 0.28 | -0.379 ± 0.38

Row | Sequence | self-splicing fitness (ln) (30 °C) | self-splicing fitness (ln) (37 °C)
26 | UCUUAGCAAUAUUACGCGAC | – | -3.07 ± 0.32
27 | UCUUAGCAAUAUUACGCGCU | -3.3 ± 0.47 | -3.27 ± 0.39
28 | UCUUAGCAAUAUUACGCGGU | -3.5 ± 0.2 | -2.76 ± 0.26
29 | UCUUAGCAAUAUUACGGAUA | -2.68 ± 0.25 | -2.18 ± 0.24
30 | UCUUAGCAAUAUUACGGCGC | -2.61 ± 0.39 | –
31 | UCUUAGCAAUAUUACGGGAU | -3.65 ± 0.33 | -2.65 ± 0.36
32 | UCUUAGCAAUAUUACGUAGG | -1.26 ± 0.11 | 0.0819 ± 0.16
33 | UCUUAGCAAUAUUACGUAUG | -1.33 ± 0.15 | -0.892 ± 0.18
34 | UCUUAGCAAUAUUACGUAUU | -3.1 ± 0.28 | -3.54 ± 0.39
35 | UCUUAGCAAUAUUACGUGAC | -2.81 ± 0.18 | -3.32 ± 0.4
36 | UCUUAGCAAUAUUACGUGGG | -3.96 ± 0.23 | -2.21 ± 0.18
37 | UCUUAGCAAUAUUACGUGGU | -3.39 ± 0.16 | -3.1 ± 0.23
38 | UCUUAGCAAUAUUACGUUAU | -3.27 ± 0.28 | -2.3 ± 0.28
39 | UCUUAGCAAUAUUACGUUGA | -2.76 ± 0.22 | -1.94 ± 0.18
40 | UGAAAGCAAUAUUACGACAC | -2.11 ± 0.34 | -1.18 ± 0.4
41 | UGAAAGCAAUAUUACGACCU | -0.0194 ± 0.1 | 0.188 ± 0.12
42 | UGAAAGCAAUAUUACGACUU | -0.765 ± 0.12 | 0.423 ± 0.15
43 | UGAAAGCAAUAUUACGAGAU | -2.93 ± 0.14 | -2.18 ± 0.19
44 | UGAAAGCAAUAUUACGAGGU | -4.07 ± 0.31 | -1.72 ± 0.23
45 | UGAAAGCAAUAUUACGAUAA | -0.879 ± 0.11 | -0.129 ± 0.13
46 | UGAAAGCAAUAUUACGCACC | -0.796 ± 0.2 | -0.513 ± 0.26
47 | UGAAAGCAAUAUUACGCAGA | -1.68 ± 0.12 | -1.93 ± 0.15
48 | UGAAAGCAAUAUUACGCAUU | -3.13 ± 0.23 | –
49 | UGAAAGCAAUAUUACGCCAC | – | -2.67 ± 0.48
50 | UGAAAGCAAUAUUACGCCCG | -0.527 ± 0.15 | -0.0303 ± 0.21

Row | Sequence | self-splicing fitness (ln) (30 °C) | self-splicing fitness (ln) (37 °C)
51 | UGAAAGCAAUAUUACGCGGC | -3.44 ± 0.33 | -2.07 ± 0.24
52 | UGAAAGCAAUAUUACGCGUG | -0.951 ± 0.049 | -0.284 ± 0.064
53 | UGAAAGCAAUAUUACGCUCG | -1.22 ± 0.14 | 0.141 ± 0.18
54 | UGAAAGCAAUAUUACGGACU | 0.219 ± 0.079 | 0.125 ± 0.094
55 | UGAAAGCAAUAUUACGGCGA | -0.22 ± 0.1 | -0.0348 ± 0.099
56 | UGAAAGCAAUAUUACGGUCC | -0.844 ± 0.072 | -0.196 ± 0.095
57 | UGAAAGCAAUAUUACGUAAC | – | -1.29 ± 0.25
58 | UGAAAGCAAUAUUACGUAAU | -3.71 ± 0.14 | -0.793 ± 0.11
59 | UGAAAGCAAUAUUACGUCCG | 0.111 ± 0.1 | 0.472 ± 0.14
60 | UGAAAGCAAUAUUACGUGGA | -2.89 ± 0.15 | -2.69 ± 0.18
61 | UGAAAGCAAUAUUACGUGGC | -3.37 ± 0.17 | -2.73 ± 0.25
62 | UGACAGCAAUAUUACGAACU | -0.592 ± 0.14 | 0.0955 ± 0.17
63 | UGACAGCAAUAUUACGAAUC | -3.49 ± 0.37 | -1.68 ± 0.31
64 | UGACAGCAAUAUUACGACCU | -1.09 ± 0.11 | 0.0765 ± 0.14
65 | UGACAGCAAUAUUACGACUC | -2.23 ± 0.17 | -0.483 ± 0.17
66 | UGACAGCAAUAUUACGAGAC | -3.79 ± 0.49 | -2.72 ± 0.46
67 | UGACAGCAAUAUUACGAGGC | -2.35 ± 0.23 | -2.95 ± 0.43
68 | UGACAGCAAUAUUACGAUCA | -0.329 ± 0.068 | 0.116 ± 0.089
69 | UGACAGCAAUAUUACGCAAA | -2.27 ± 0.18 | -1.73 ± 0.2
70 | UGACAGCAAUAUUACGCAAC | -2.25 ± 0.29 | -1.24 ± 0.25
71 | UGACAGCAAUAUUACGCCGC | -1.26 ± 0.32 | –
72 | UGACAGCAAUAUUACGCGAU | -2.5 ± 0.15 | -1.46 ± 0.19
73 | UGACAGCAAUAUUACGCGGA | -1.75 ± 0.12 | -1 ± 0.097
74 | UGACAGCAAUAUUACGGCUG | -2.28 ± 0.18 | -0.623 ± 0.15
75 | UGACAGCAAUAUUACGGGUU | -4.59 ± 0.41 | -2.79 ± 0.2

Row | Sequence | self-splicing fitness (ln) (30 °C) | self-splicing fitness (ln) (37 °C)
76 | UGACAGCAAUAUUACGGUAG | -0.921 ± 0.067 | -0.41 ± 0.074
77 | UGACAGCAAUAUUACGGUGU | -4.28 ± 0.23 | -2.52 ± 0.19
78 | UGACAGCAAUAUUACGUCAU | -3.99 ± 0.27 | -2.48 ± 0.18
79 | UGACAGCAAUAUUACGUCGU | -1.56 ± 0.15 | -3.25 ± 0.24
80 | UGACAGCAAUAUUACGUCUU | -0.839 ± 0.049 | -0.539 ± 0.07
81 | UGACAGCAAUAUUACGUGAA | -1.94 ± 0.076 | -0.332 ± 0.094
82 | UGACAGCAAUAUUACGUGAU | -3.05 ± 0.11 | -0.351 ± 0.084
83 | UGACAGCAAUAUUACGUGGC | -4.11 ± 0.28 | -3.11 ± 0.37
84 | UGAGAGCAAUAUUACGAAGA | -1.45 ± 0.29 | -2.35 ± 0.42
85 | UGAGAGCAAUAUUACGAGUA | -2.37 ± 0.49 | -2.16 ± 0.46
86 | UGAGAGCAAUAUUACGAGUU | -3.31 ± 0.23 | -2.3 ± 0.34
87 | UGAGAGCAAUAUUACGAUCA | -1.62 ± 0.22 | -1.1 ± 0.25
88 | UGAGAGCAAUAUUACGCACA | -2.08 ± 0.3 | -0.659 ± 0.35
89 | UGAGAGCAAUAUUACGCCCG | -3.12 ± 0.3 | -0.718 ± 0.21
90 | UGAGAGCAAUAUUACGCGGU | – | -0.929 ± 0.39
91 | UGAGAGCAAUAUUACGUACG | -2.03 ± 0.13 | -1.59 ± 0.22
92 | UGAGAGCAAUAUUACGUCAG | – | -3.02 ± 0.31
93 | UGAGAGCAAUAUUACGUCAU | -1.71 ± 0.26 | –
94 | UGAGAGCAAUAUUACGUCGU | -2.38 ± 0.2 | -2.64 ± 0.36
95 | UGAUAGCAAUAUUACGAACU | -1.03 ± 0.12 | 0.402 ± 0.11
96 | UGAUAGCAAUAUUACGACUG | 0.053 ± 0.18 | -0.49 ± 0.17
97 | UGAUAGCAAUAUUACGAGGU | -3.79 ± 0.24 | -3.13 ± 0.25
98 | UGAUAGCAAUAUUACGCUAU | -3.98 ± 0.47 | -2.04 ± 0.27
99 | UGAUAGCAAUAUUACGCUGG | -1.15 ± 0.11 | -0.645 ± 0.12
100 | UGAUAGCAAUAUUACGGAAC | – | -1.21 ± 0.42
